λmax (LSPR extinction maximum wavelength) data for one substance are collected here from paper PMC6471214.

Test [1] deals with Biotinylated tubulin (UniProt P02550). The test is described as follows: LSPR (extinction maximum wavelength of gold nanoparticles) + fluorescence microscopy; long MT sample: as the short MT sample, then 10 volumes of 4 µM tubulin (4% Rhodamine-labeled) with 0.5 mM GMPCPP added, 20 more min at 37 °C before paclitaxel.
The target is the same in test [2]. The test is described as follows: LSPR (extinction maximum wavelength of gold nanoparticles) + fluorescence microscopy; short MT sample: biotinylated tubulin (7% of the tubulin mix, with 4% Rhodamine-labeled tubulin) held on 80 nm biotin-PEG AuNPs through neutravidin; BRB80 pH 6.8, 0.025% Tween 20; GMPCPP, 37 °C for 30 min; stabilised with 10 µM paclitaxel; spectra at room temperature.

Take “Porcine tubulin (α/β-tubulin heterodimer subunits) (from UniProt P02550 1-451; P02554 1-445) (complex)”: the λmax (LSPR extinction maximum wavelength) in the test with Biotinylated tubulin [1] and in the test with Biotinylated tubulin [2] was 553 nm each time.
